According to article PMC6510891, “Functional duplication of Rap1 in methylotrophic yeasts”:

Target: T1, HpRap1B (Hansenula polymorpha DL-1, UniProt W1QDN2 1-576)
T1 sequence: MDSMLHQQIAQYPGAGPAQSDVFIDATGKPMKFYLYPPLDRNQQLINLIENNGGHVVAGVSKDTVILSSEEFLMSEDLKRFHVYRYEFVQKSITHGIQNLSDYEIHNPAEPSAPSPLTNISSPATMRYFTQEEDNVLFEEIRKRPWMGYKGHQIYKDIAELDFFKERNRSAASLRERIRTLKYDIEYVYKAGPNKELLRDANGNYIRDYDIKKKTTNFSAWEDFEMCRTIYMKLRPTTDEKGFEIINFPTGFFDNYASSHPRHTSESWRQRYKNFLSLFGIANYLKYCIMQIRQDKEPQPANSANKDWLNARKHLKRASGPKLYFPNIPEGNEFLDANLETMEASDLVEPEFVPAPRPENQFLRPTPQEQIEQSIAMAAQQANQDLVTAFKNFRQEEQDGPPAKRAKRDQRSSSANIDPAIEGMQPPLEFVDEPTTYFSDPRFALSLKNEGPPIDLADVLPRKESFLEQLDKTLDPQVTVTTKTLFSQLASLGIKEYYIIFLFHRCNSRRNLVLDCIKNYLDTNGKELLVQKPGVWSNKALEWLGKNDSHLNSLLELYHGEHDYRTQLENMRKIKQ
Assay: SPR; kinetic fit; equilibrium Kd 13±3; SPR: 10 mM HEPES-NaOH pH 7.5, 150 mM NaCl, 0.5 mM DTT, 0.05% Tween 20, 1 mg/ml BSA, 0.02 mg/ml salmon sperm DNA; competition 2 nM protein with 20 or 200 nM competitor. EMSA: 20 mM HEPES-NaOH pH 7.5, 50 mM NaCl, 0.2 mg/ml BSA, 5% glycerol, 0.1 mg/ml salmon sperm DNA, room temperature
Conditions: protein: recombinant; 3' overhang 20 nt on strand 2

B1: HANPO4 (SPR) (dsDNA)
DNA 1: GGGTGGCGGGGTGGCGGGGTGGCGGGGTGGCG
DNA 2: CGCCACCCCGCCACCCCGCCACCCCGCCACCCCCTCTACGTCCTCCTGCTCC
- Kd: 12 ± 3 nM
